# Assay results from paper PMC7017353, “Delineating the Molecular Basis of the Calmodulin–bMunc13-2 Interaction by Cross-Linking/Mass Spectrometry—Evidence for a Novel CaM Binding Motif in bMunc13-2” (Cells, 2020).
# Where no end group is shown, it is not given here. [ ]: non-standard residue; d: D form. Bpa = N[C@@H](Cc1ccc(C(=O)c2ccccc2)cc1)C(=O)O
# B1: Segment-CS-Bpa (peptide)
# peptide: CINN[Bpa]KNVLREKRLRQKKLLQELV
# notes: source: synthetic peptide
# Biological target: recombinant CaM (UniProt P0DP23 1-149)
# Test: cross-linking; photoaffinity labelling (PAL)-based competition: CaM (5 µM) with segment-C-Bpa or segment-CS-Bpa (5 µM), competitor peptides 0–250 µM; 50 mM HEPES pH 7.2, 150 mM KCl, 5 mM DTT, 2 h RT, 200 µM Ca2+ or 2 mM EGTA; UV; SDS-PAGE and MALDI-TOF-MS
# Conditions: both partners purified
binder,measurement,value
B1,binding result,binds
